# Experimental data reported in paper PMC4699637, “Papillomavirus-Associated Tumor Formation Critically Depends on c-Fos Expression Induced by Viral Protein E2 and Bromodomain Protein Brd4”.
# What was measured:
# [1] = target: T1, c-Jun (UniProt P05412 1-331); assay: EMSA; homodimer; details: protein: recombinant; chain copies: 2; label: 32P; blunt
# [2] = target: T1, c-Jun; assay: competition; homodimer; 100-fold excess unlabeled vs N1; details: protein: recombinant; chain copies: 2; blunt
# T1 sequence (P05412 whole entry): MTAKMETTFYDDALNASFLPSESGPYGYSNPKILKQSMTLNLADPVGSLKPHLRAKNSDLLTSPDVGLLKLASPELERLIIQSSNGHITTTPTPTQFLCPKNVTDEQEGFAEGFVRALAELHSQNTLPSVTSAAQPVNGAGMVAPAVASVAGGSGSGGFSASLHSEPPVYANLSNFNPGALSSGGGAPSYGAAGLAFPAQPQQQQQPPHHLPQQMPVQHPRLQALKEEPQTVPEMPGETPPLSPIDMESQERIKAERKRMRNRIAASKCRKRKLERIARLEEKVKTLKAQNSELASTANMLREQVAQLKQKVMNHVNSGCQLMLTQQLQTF
binder,measurement,setting,value
dAP CRPV URR WT (dsDNA) DNA 1: GCATGCGATGACACATTACAC DNA 2: GTGTAATGTGTCATCGCATGC,binding result,[1],binds
dAP CRPV URR mut (mdAP) (dsDNA) DNA 1: GCATGCGACATATGTTACAC DNA 2: GTGTAACATATGTCGCATGC,binding result,[2],no binding
